Measurements as given in US20260242735A1 (UNIVERSIT T BASEL, published 2026).

B1: Refmab #1 (antibody, human IgG1, V domains shown)
VH: EVQLVQSGAEVKKPGSSVKVSCKASGYTITDSNIHWVRQAPGQSLEWIGYIYPYNGGTDYNQKFKNRATLTVDNPTNTAYMELSSLRSEDTAFYYCVNGNPWLAYWGQGTLVTVSS
VL: DIQLTQSPSTLSASVGDRVTITCRASESLDNYGIRFLTWFQQKPGKAPKLLMYAASNQGSGVPSRFSGSGSGTEFTLTISSLQPDDFATYYCQQTKEVPWSFGQGTKVEVK
notes: Tested in IgG format; human IgG1 (Absolute Antibody hP67.6, Cat. No. Ab00283-10.0); also called hP67.6
B2: Refmab #4 (antibody, V domains shown)
VH: QVQLVQSGAEVKKPGESVKVSCKASGYTFTNYGMNWVKQAPGQGLEWMGWINTYTGEPTYADKFQGRVTMTTDTSTSTAYMEIRNLGGDDTAVYYCARWSWSDGYYVYFDYWGQGTSVTVSS
VL: DIVMTQSPDSLTVSLGERTTINCKSSQSVLDSSTNKNSLAWYQQKPGQPPKLLLSWASTRESGIPDRFSGSGSGTDFTLTIDSPQPEDSATYYCQQSAHFPITFGQGTRLEIK
notes: The alanine scan used IgG or Fab
B3: Refmab #4 (antibody, human IgG1, V domains shown)
VH: QVQLVQSGAEVKKPGESVKVSCKASGYTFTNYGMNWVKQAPGQGLEWMGWINTYTGEPTYADKFQGRVTMTTDTSTSTAYMEIRNLGGDDTAVYYCARWSWSDGYYVYFDYWGQGTSVTVSS
VL: DIVMTQSPDSLTVSLGERTTINCKSSQSVLDSSTNKNSLAWYQQKPGQPPKLLLSWASTRESGIPDRFSGSGSGTDFTLTIDSPQPEDSATYYCQQSAHFPITFGQGTRLEIK
notes: Tested in IgG format; human IgG1 Fc silent (PG-LALA)
B4: Refmab #3 (antibody, V domains shown)
VH: QVQLVQSGAEVKKPGSSVKVSCKASGYTFTDYNMHWVRQAPGQGLEWIGYIYPYNGGTGYNQKFKSKATITADESTNTAYMELSSLRSEDTAVYYCARGRPAMDYWGQGTLVTVSS
VL: DIQMTQSPSSLSASVGDRVTITCRASESVDNYGISFMNWFQQKPGKAPKLLIYAASNQGSGVPSRFSGSGSGTDFTLTISSLQPDDFATYYCQQSKEVPWTFGQGTKVEIK
notes: as for B2

Key:
[1] = target: human CD33 variant I47P (human, UniProt P20138 18-364); assay: flow cytometry, IgG on cells expressing the mutant
[2] = target: human CD33 variant P48T (human, UniProt P20138 18-364); assay: flow cytometry, IgG on cells expressing the mutant
[3] = target: human CD33 variant P48V (human, UniProt P20138 18-364); assay: flow cytometry, IgG on cells expressing the mutant
[4] = target: human CD33 variant P48M (human, UniProt P20138 18-364); assay: flow cytometry, IgG on cells expressing the mutant
[5] = target: human CD33 variant P48W (human, UniProt P20138 18-364); assay: flow cytometry, IgG on cells expressing the mutant
[6] = target: human CD33 variant P48N (human, UniProt P20138 18-364); assay: flow cytometry, IgG on cells expressing the mutant
[7] = target: human CD33 variant P48K (human, UniProt P20138 18-364); assay: flow cytometry, IgG on cells expressing the mutant
[8] = target: human CD33 variant Y49S (human, UniProt P20138 18-364); assay: flow cytometry, IgG on cells expressing the mutant
[9] = target: human CD33 variant Y50R (human, UniProt P20138 18-364); assay: flow cytometry, IgG on cells expressing the mutant
[10] = target: human CD33 variant Y50P (human, UniProt P20138 18-364); assay: flow cytometry, IgG on cells expressing the mutant
[11] = target: human CD33 variant K52S (human, UniProt P20138 18-364); assay: flow cytometry, IgG on cells expressing the mutant
[12] = target: human CD33 variant K52F (human, UniProt P20138 18-364); assay: flow cytometry, IgG on cells expressing the mutant
[13] = target: human CD33 variant I47L (human, UniProt P20138 18-364); assay: flow cytometry, IgG on cells expressing the mutant
[14] = target: human CD33 variant K52Y (human, UniProt P20138 18-364); assay: flow cytometry, IgG on cells expressing the mutant
[15] = target: human CD33 variant K52D (human, UniProt P20138 18-364); assay: flow cytometry, IgG on cells expressing the mutant
[16] = target: human CD33 variant K52H (human, UniProt P20138 18-364); assay: flow cytometry, IgG on cells expressing the mutant
[17] = target: human CD33 variant K52I (human, UniProt P20138 18-364); assay: flow cytometry, IgG on cells expressing the mutant
[18] = target: human CD33 variant M120V (human, UniProt P20138 18-364); assay: flow cytometry, IgG on cells expressing the mutant
[19] = target: human CD33 variant M120L (human, UniProt P20138 18-364); assay: flow cytometry, IgG on cells expressing the mutant
[20] = target: human CD33 variant R122G (human, UniProt P20138 18-364); assay: flow cytometry, IgG on cells expressing the mutant
[21] = target: human CD33 variant R122S (human, UniProt P20138 18-364); assay: flow cytometry, IgG on cells expressing the mutant
[22] = target: human CD33 variant R122E (human, UniProt P20138 18-364); assay: flow cytometry, IgG on cells expressing the mutant
[23] = target: human CD33 variant R122T (human, UniProt P20138 18-364); assay: flow cytometry, IgG on cells expressing the mutant
[24] = target: human CD33 variant Y127R (human, UniProt P20138 18-364); assay: flow cytometry, IgG on cells expressing the mutant
[25] = target: human CD33 variant I47Y (human, UniProt P20138 18-364); assay: flow cytometry, IgG on cells expressing the mutant
[26] = target: human CD33 variant S131G (human, UniProt P20138 18-364); assay: flow cytometry, IgG on cells expressing the mutant
[27] = target: human CD33 S104A (human, UniProt P20138 18-364); assay: flow cytometry on HEK293-T, alanine scan
Description: (§1) An alanine scan on human CD33 was performed to the determine the residues on CD33 that are involved in binding to the antibodies investigated. […] Briefly, a mutation library of CD33 was created by high-throughput, site-directed mutagenesis. Each residue was individually mutated to alanine, with alanine codons mutated to serine. The mutant library was arrayed in 384-well microplates and transiently transfected into HEK293-T. Following transfection, cells were incubated with the indicated antibodies (IgG or Fab) at concentrations pre-determined using an independent immunofluorescence titration curve on wild type CD33. […] Binding of each antibody to each mutant clone was determined in duplicates. For each point, background fluorescence was subtracted from the raw data, which were then normalized to antibody reactivity with wild type CD33.
(§2) Critical residues for antibody binding (outlined in dark grey) were residues whose mutations led to a binding of the test Abs of less than 20%. Additional secondary residues (outlined in light grey) were identified that led to a binding of the test Abs of between 20 and 40% as compared to the wild type CD33.

[28] = target: human CD33 I105A (human, UniProt P20138 18-364); assay: flow cytometry on HEK293-T, alanine scan
Description: as §1, §2

[29] = target: human CD33 N113A (human, UniProt P20138 18-364); assay: flow cytometry on HEK293-T, alanine scan
Description: as §1, §2

[30] = target: human CD33 Y127A (human, UniProt P20138 18-364); assay: flow cytometry on HEK293-T, alanine scan
Description: as §1, §2

[31] = target: human CD33 P155A (human, UniProt P20138 18-364); assay: flow cytometry on HEK293-T, alanine scan
Description: as §1, §2

[32] = target: human CD33 V138A (human, UniProt P20138 18-364); assay: flow cytometry on HEK293-T, alanine scan
Sequence of human CD33 V138A (P20138 18-364 V138A limits assumed): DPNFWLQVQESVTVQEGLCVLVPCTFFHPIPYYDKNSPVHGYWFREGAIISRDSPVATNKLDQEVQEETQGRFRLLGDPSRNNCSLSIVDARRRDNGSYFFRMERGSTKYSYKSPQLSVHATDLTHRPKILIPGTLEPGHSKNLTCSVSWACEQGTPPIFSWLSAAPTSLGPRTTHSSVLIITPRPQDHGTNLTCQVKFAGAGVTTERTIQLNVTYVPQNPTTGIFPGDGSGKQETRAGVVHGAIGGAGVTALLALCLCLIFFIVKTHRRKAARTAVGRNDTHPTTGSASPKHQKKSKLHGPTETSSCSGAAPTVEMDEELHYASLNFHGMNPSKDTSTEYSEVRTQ
Description: as §1, §2

Sequence of human CD33 variant P48V (P20138 18-364 P48V limits assumed): as the sequence (P20138 18-364 V138A limits assumed) above, with P31V, A121V counted along it
Sequence of human CD33 variant I47L (P20138 18-364 I47L limits assumed): as the sequence (P20138 18-364 V138A limits assumed) above, with I30L, A121V counted along it
Sequence of human CD33 P155A (P20138 18-364 P155A limits assumed): as the sequence (P20138 18-364 V138A limits assumed) above, with A121V, P138A counted along it
Sequence of human CD33 variant M120L (P20138 18-364 M120L limits assumed): as the sequence (P20138 18-364 V138A limits assumed) above, with M103L, A121V counted along it
Sequence of human CD33 variant Y50R (P20138 18-364 Y50R limits assumed): as the sequence (P20138 18-364 V138A limits assumed) above, with Y33R, A121V counted along it
Sequence of human CD33 variant K52I (P20138 18-364 K52I limits assumed): as the sequence (P20138 18-364 V138A limits assumed) above, with K35I, A121V counted along it
Sequence of human CD33 variant I47Y (P20138 18-364 I47Y limits assumed): as the sequence (P20138 18-364 V138A limits assumed) above, with I30Y, A121V counted along it
Sequence of human CD33 S104A (P20138 18-364 S104A limits assumed): as the sequence (P20138 18-364 V138A limits assumed) above, with S87A, A121V counted along it
Sequence of human CD33 Y127A (P20138 18-364 Y127A limits assumed): as the sequence (P20138 18-364 V138A limits assumed) above, with Y110A, A121V counted along it
Sequence of human CD33 variant R122G (P20138 18-364 R122G limits assumed): as the sequence (P20138 18-364 V138A limits assumed) above, with R105G, A121V counted along it
Sequence of human CD33 variant K52S (P20138 18-364 K52S limits assumed): as the sequence (P20138 18-364 V138A limits assumed) above, with K35S, A121V counted along it
Sequence of human CD33 variant R122T (P20138 18-364 R122T limits assumed): as the sequence (P20138 18-364 V138A limits assumed) above, with R105T, A121V counted along it
Sequence of human CD33 variant M120V (P20138 18-364 M120V limits assumed): as the sequence (P20138 18-364 V138A limits assumed) above, with M103V, A121V counted along it
Sequence of human CD33 variant K52H (P20138 18-364 K52H limits assumed): as the sequence (P20138 18-364 V138A limits assumed) above, with K35H, A121V counted along it
Sequence of human CD33 variant K52F (P20138 18-364 K52F limits assumed): as the sequence (P20138 18-364 V138A limits assumed) above, with K35F, A121V counted along it
Sequence of human CD33 variant Y127R (P20138 18-364 Y127R limits assumed): as the sequence (P20138 18-364 V138A limits assumed) above, with Y110R, A121V counted along it
Sequence of human CD33 variant P48M (P20138 18-364 P48M limits assumed): as the sequence (P20138 18-364 V138A limits assumed) above, with P31M, A121V counted along it
Sequence of human CD33 I105A (P20138 18-364 I105A limits assumed): as the sequence (P20138 18-364 V138A limits assumed) above, with I88A, A121V counted along it
Sequence of human CD33 variant P48W (P20138 18-364 P48W limits assumed): as the sequence (P20138 18-364 V138A limits assumed) above, with P31W, A121V counted along it
Sequence of human CD33 variant I47P (P20138 18-364 I47P limits assumed): as the sequence (P20138 18-364 V138A limits assumed) above, with I30P, A121V counted along it
Sequence of human CD33 variant K52D (P20138 18-364 K52D limits assumed): as the sequence (P20138 18-364 V138A limits assumed) above, with K35D, A121V counted along it
Sequence of human CD33 variant K52Y (P20138 18-364 K52Y limits assumed): as the sequence (P20138 18-364 V138A limits assumed) above, with K35Y, A121V counted along it
Sequence of human CD33 variant R122E (P20138 18-364 R122E limits assumed): as the sequence (P20138 18-364 V138A limits assumed) above, with R105E, A121V counted along it
Sequence of human CD33 N113A (P20138 18-364 N113A limits assumed): as the sequence (P20138 18-364 V138A limits assumed) above, with N96A, A121V counted along it
Sequence of human CD33 variant P48K (P20138 18-364 P48K limits assumed): as the sequence (P20138 18-364 V138A limits assumed) above, with P31K, A121V counted along it
Sequence of human CD33 variant S131G (P20138 18-364 S131G limits assumed): as the sequence (P20138 18-364 V138A limits assumed) above, with S114G, A121V counted along it
Sequence of human CD33 variant R122S (P20138 18-364 R122S limits assumed): as the sequence (P20138 18-364 V138A limits assumed) above, with R105S, A121V counted along it
Sequence of human CD33 variant P48T (P20138 18-364 P48T limits assumed): as the sequence (P20138 18-364 V138A limits assumed) above, with P31T, A121V counted along it
Sequence of human CD33 variant P48N (P20138 18-364 P48N limits assumed): as the sequence (P20138 18-364 V138A limits assumed) above, with P31N, A121V counted along it
Sequence of human CD33 variant Y50P (P20138 18-364 Y50P limits assumed): as the sequence (P20138 18-364 V138A limits assumed) above, with Y33P, A121V counted along it
Sequence of human CD33 variant Y49S (P20138 18-364 Y49S limits assumed): as the sequence (P20138 18-364 V138A limits assumed) above, with Y32S, A121V counted along it

Binder | Mean % WT Binding [1] | Mean % WT Binding [2] | Mean % WT Binding [3] | Mean % WT Binding [4] | Mean % WT Binding [5] | Mean % WT Binding [6] | Mean % WT Binding [7] | Mean % WT Binding [9] | Mean % WT Binding [10] | Mean % WT Binding [11] | Mean % WT Binding [12] | Mean % WT Binding [13] | Mean % WT Binding [14] | Mean % WT Binding [15] | Mean % WT Binding [16] | Mean % WT Binding [17] | Mean % WT Binding [18] | Mean % WT Binding [19] | Mean % WT Binding [20] | Mean % WT Binding [21] | further results
B1 | 84.5 % of WT | 106 % of WT | 121 % of WT | 110 % of WT | 95.6 % of WT | 100 % of WT | 99.4 % of WT | 94.1 % of WT | 98.1 % of WT | 84.3 % of WT | 4.5 % of WT | 112 % of WT | 45 % of WT | 101 % of WT | 94.2 % of WT | 89.2 % of WT | 98.7 % of WT | 98.4 % of WT | 109 % of WT | 111 % of WT | Mean % WT Binding [8]: 107 % of WT; Mean % WT Binding [22]: 110 % of WT; Mean % WT Binding [23]: 113 % of WT; Mean % WT Binding [24]: 84 % of WT; Mean % WT Binding [25]: 110 % of WT; Mean % WT Binding [26]: 95.1 % of WT
B2 | – | – | – | – | – | – | – | – | – | – | – | – | – | – | – | – | – | – | – | – | Mean % WT Binding [27]: 86.4 % WT binding; Mean % WT Binding [28]: 21.6 % WT binding; Mean % WT Binding [29]: 45.1 % WT binding; Mean % WT Binding [30]: 300 % WT binding; Mean % WT Binding [31]: 111 % WT binding
B3 | 49 % of WT | 11.7 % of WT | 88.5 % of WT | 1.3 % of WT | 1.3 % of WT | 3.8 % of WT | 0 % of WT | 0.3 % of WT | 85.6 % of WT | 85 % of WT | 3.5 % of WT | 88.5 % of WT | 20.7 % of WT | 9.4 % of WT | 75.1 % of WT | 61.9 % of WT | 100 % of WT | 110 % of WT | 91.3 % of WT | 90.2 % of WT | Mean % WT Binding [22]: 79.2 % of WT; Mean % WT Binding [23]: 93.2 % of WT; Mean % WT Binding [24]: 116 % of WT; Mean % WT Binding [25]: 96 % of WT; Mean % WT Binding [26]: 96.9 % of WT
B4 | – | – | – | – | – | – | – | – | – | – | – | – | – | – | – | – | – | – | – | – | Mean % WT Binding [27]: 102 % WT binding; Mean % WT Binding [28]: 64.7 % WT binding; Mean % WT Binding [29]: 81.4 % WT binding; Mean % WT Binding [30]: 31.9 % WT binding; Mean % WT Binding [32]: 129 % WT binding; Mean % WT Binding [31]: 114 % WT binding
